The target of the experiment is PKC δ (rat), P09215. In words: cell-based or functional assay.
Chain of PKC δ (rat), P09215 (P09215 whole entry, stated change not applied): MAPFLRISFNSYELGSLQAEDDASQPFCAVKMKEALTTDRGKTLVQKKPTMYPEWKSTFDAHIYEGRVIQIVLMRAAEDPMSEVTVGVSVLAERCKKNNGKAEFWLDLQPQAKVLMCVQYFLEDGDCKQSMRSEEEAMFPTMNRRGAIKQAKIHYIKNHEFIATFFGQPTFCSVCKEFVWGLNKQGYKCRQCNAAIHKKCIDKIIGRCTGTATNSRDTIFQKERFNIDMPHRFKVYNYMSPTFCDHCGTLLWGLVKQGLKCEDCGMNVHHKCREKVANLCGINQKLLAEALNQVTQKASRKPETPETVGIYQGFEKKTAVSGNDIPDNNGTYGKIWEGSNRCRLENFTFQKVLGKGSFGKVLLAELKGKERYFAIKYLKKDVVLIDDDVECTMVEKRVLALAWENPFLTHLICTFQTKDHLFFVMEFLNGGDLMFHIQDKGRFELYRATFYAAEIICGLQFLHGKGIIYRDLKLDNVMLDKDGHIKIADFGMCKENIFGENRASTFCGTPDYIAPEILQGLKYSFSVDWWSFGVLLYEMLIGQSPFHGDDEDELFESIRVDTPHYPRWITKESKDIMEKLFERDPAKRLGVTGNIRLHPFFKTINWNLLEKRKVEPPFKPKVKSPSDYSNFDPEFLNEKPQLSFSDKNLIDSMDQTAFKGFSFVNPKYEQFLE

SFNSYELGSLRQIKIWFQNRRMKWKK [PKC δ translocation inhibitor δV1-1 conjugated to Drosophila antennapedia peptide] registered an inhibition of CCK-8 induced NF-κB activation (EMSA band intensity, rat pancreatic acini, 10 µM peptide) of 76% and an inhibition of TNF-α induced NF-κB activation (EMSA band intensity, rat pancreatic acini, 10 µM peptide) of 57%.

(Values after US20040259816A1.)
